Patent publication US20220088148A1 (HANMI PHARM, published 2022)
Bridges are numbered along the chain shown (N, C = ends). Where no end group is shown, it is not given here. [ ]: non-standard residue; d: D form. The star is where a group is joined. Acetyl(2-(4-imidazolyl)) = O=C(Cc1c[nH]cn1)*; Aib = CC(C)(N)C(=O)O

Each binder was assayed against human GCG receptor (human, UniProt P47871 26-477) (assay: cell-based or functional assay).
Chain of human GCG receptor (P47871 26-477): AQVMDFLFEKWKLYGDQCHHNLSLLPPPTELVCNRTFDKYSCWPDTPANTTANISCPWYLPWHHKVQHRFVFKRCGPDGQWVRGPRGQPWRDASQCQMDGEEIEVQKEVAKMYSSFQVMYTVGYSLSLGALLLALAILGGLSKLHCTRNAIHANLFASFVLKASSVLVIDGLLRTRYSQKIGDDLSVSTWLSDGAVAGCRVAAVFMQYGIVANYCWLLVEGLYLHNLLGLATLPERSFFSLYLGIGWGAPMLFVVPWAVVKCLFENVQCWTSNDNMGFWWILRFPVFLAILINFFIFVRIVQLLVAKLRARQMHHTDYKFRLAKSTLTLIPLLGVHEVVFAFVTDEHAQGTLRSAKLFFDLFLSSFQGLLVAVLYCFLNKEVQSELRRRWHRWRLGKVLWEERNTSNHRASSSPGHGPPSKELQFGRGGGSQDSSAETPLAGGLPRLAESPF

[Acetyl(2-(4-imidazolyl))]GEGTFTSDLSKYLDSRRQQLFVQWLKAGGPSSGAPPPSHG [triple agonist of SEQ ID NO: 11] and [Acetyl(2-(4-imidazolyl))]GEGTFISDLSKYMDEQAVQLFVEWLMAGGPSSGAPPPSHG [triple agonist of SEQ ID NO: 12] cannot be ordered by “In vitro activity (%) vs. Glucagon, cAMP EC50” value: < 0.1% for the first, < 0.1% for the second.

[Acetyl(2-(4-imidazolyl))]GEGTFISDYSIQLDEIAVQDFVEWLLAQKPSSGAPPPSHG [triple agonist of SEQ ID NO: 13] and H[Aib]QGTFTSDVSSYLDGQAQKEFIAWLVKGC [triple agonist of SEQ ID NO: 2] cannot be ordered by “In vitro activity (%) vs. Glucagon, cAMP EC50” value: < 0.1% for the first, < 0.1% for the second.

[Acetyl(2-(4-imidazolyl))]GQGTFTSDYSIQLDEIAVRDFVEWLKNGGPSSGAPPPSHG [triple agonist of SEQ ID NO: 14] and [Acetyl(2-(4-imidazolyl))]GQGTFTSDLSKQMDSEAQQLFIEWLKNGGPSSGAPPPSHG [triple agonist of SEQ ID NO: 16] cannot be ordered by “In vitro activity (%) vs. Glucagon, cAMP EC50” value: < 0.1% for the first, < 0.1% for the second.

[Acetyl(2-(4-imidazolyl))]GQGTFTSDLSKQMDEERAREFIEWLLAQKPSSGAPPPSHG [triple agonist of SEQ ID NO: 17] and [Acetyl(2-(4-imidazolyl))]GQGTFTSDLSKQMDSERAREFIEWLKNTGPSSGAPPPSHG [triple agonist of SEQ ID NO: 18] cannot be ordered by “In vitro activity (%) vs. Glucagon, cAMP EC50” value: < 0.1% for the first, < 0.1% for the second.

[Acetyl(2-(4-imidazolyl))]GQGTFTSDLSIQYDSEHQRDFIEWLKDTGPSSGAPPPSHG [triple agonist of SEQ ID NO: 19] and [Acetyl(2-(4-imidazolyl))]GQGTFTSDLSIQYEEEAQQDFVEWLKDTGPSSGAPPPSHG [triple agonist of SEQ ID NO: 20] cannot be ordered by “In vitro activity (%) vs. Glucagon, cAMP EC50” value: < 0.1% for the first, < 0.1% for the second.

First: Y[Aib]QGTFTSDYSKYLDECRAKEFVQWLLDHHPSSGQPPPS (bridge 16-20) [triple agonist of SEQ ID NO: 21]
Second: Y[Aib]QGTFTSDYSKCLDEKRAKEFVQWLLDHHPSSGQPPPS (bridge 16-20) [triple agonist of SEQ ID NO: 22]
The “In vitro activity (%) vs. Glucagon, cAMP EC50” value of the first is higher: 267% for the first, 140% for the second.

Each binder was assayed against human GLP-1 receptor (human, UniProt P43220 24-463) (assay: cell-based or functional assay).

Going from [Acetyl(2-(4-imidazolyl))]GEGTFTSDLSKYLDSRRQQLFVQWLKAGGPSSGAPPPSHG [triple agonist of SEQ ID NO: 11] to [Acetyl(2-(4-imidazolyl))]GEGTFISDLSKYMDEQAVQLFVEWLMAGGPSSGAPPPSHG [triple agonist of SEQ ID NO: 12], the “In vitro activity (%) vs. GLP-1, cAMP EC50” value falls from 1.4% to 0.4%.

First: [Acetyl(2-(4-imidazolyl))]GEGTFISDYSIQLDEIAVQDFVEWLLAQKPSSGAPPPSHG [triple agonist of SEQ ID NO: 13]
Second: H[Aib]QGTFTSDVSSYLDGQAQKEFIAWLVKGC [triple agonist of SEQ ID NO: 2]
The “In vitro activity (%) vs. GLP-1, cAMP EC50” value of the first is lower: < 0.1% for the first, 5.9% for the second.

Compared with [Acetyl(2-(4-imidazolyl))]GQGTFTSDYSIQLDEIAVRDFVEWLKNGGPSSGAPPPSHG [triple agonist of SEQ ID NO: 14], [Acetyl(2-(4-imidazolyl))]GQGTFTSDLSKQMDSEAQQLFIEWLKNGGPSSGAPPPSHG [triple agonist of SEQ ID NO: 16] is lower in “In vitro activity (%) vs. GLP-1, cAMP EC50” value: 28% for the first, 2.1% for the second.

First: [Acetyl(2-(4-imidazolyl))]GQGTFTSDLSKQMDEERAREFIEWLLAQKPSSGAPPPSHG [triple agonist of SEQ ID NO: 17]
Second: [Acetyl(2-(4-imidazolyl))]GQGTFTSDLSKQMDSERAREFIEWLKNTGPSSGAPPPSHG [triple agonist of SEQ ID NO: 18]
The “In vitro activity (%) vs. GLP-1, cAMP EC50” value of the first is higher: 0.2% for the first, < 0.1% for the second.

[Acetyl(2-(4-imidazolyl))]GQGTFTSDLSIQYDSEHQRDFIEWLKDTGPSSGAPPPSHG [triple agonist of SEQ ID NO: 19] and [Acetyl(2-(4-imidazolyl))]GQGTFTSDLSIQYEEEAQQDFVEWLKDTGPSSGAPPPSHG [triple agonist of SEQ ID NO: 20] cannot be ordered by “In vitro activity (%) vs. GLP-1, cAMP EC50” value: < 0.1% for the first, < 0.1% for the second.

First: Y[Aib]QGTFTSDYSKYLDECRAKEFVQWLLDHHPSSGQPPPS (bridge 16-20) [triple agonist of SEQ ID NO: 21]
Second: Y[Aib]QGTFTSDYSKCLDEKRAKEFVQWLLDHHPSSGQPPPS (bridge 16-20) [triple agonist of SEQ ID NO: 22]
The “In vitro activity (%) vs. GLP-1, cAMP EC50” value of the first is lower: 17.8% for the first, 20.1% for the second.

The binders below were run against T1, human GIP receptor (human, UniProt P48546 22-466) (assay: cell-based or functional assay).
T1 sequence (looked up): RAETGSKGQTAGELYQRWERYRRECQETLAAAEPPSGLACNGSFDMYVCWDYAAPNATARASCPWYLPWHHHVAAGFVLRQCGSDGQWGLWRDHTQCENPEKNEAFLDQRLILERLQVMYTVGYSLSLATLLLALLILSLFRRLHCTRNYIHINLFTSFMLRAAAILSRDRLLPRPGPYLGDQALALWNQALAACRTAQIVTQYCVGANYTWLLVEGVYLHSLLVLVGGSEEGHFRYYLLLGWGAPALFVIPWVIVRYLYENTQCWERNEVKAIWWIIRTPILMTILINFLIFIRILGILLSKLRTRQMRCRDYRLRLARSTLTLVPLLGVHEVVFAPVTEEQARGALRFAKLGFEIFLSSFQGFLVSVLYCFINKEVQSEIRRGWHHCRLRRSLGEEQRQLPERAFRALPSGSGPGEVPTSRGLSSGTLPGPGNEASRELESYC

[Acetyl(2-(4-imidazolyl))]GEGTFTSDLSKYLDSRRQQLFVQWLKAGGPSSGAPPPSHG [triple agonist of SEQ ID NO: 11] and [Acetyl(2-(4-imidazolyl))]GEGTFISDLSKYMDEQAVQLFVEWLMAGGPSSGAPPPSHG [triple agonist of SEQ ID NO: 12] cannot be ordered by “In vitro activity (%) vs. GIP, cAMP EC50” value: < 0.1% for the first, < 0.1% for the second.

[Acetyl(2-(4-imidazolyl))]GEGTFISDYSIQLDEIAVQDFVEWLLAQKPSSGAPPPSHG [triple agonist of SEQ ID NO: 13] and H[Aib]QGTFTSDVSSYLDGQAQKEFIAWLVKGC [triple agonist of SEQ ID NO: 2] cannot be ordered by “In vitro activity (%) vs. GIP, cAMP EC50” value: < 0.1% for the first, < 0.1% for the second.

[Acetyl(2-(4-imidazolyl))]GQGTFTSDYSIQLDEIAVRDFVEWLKNGGPSSGAPPPSHG [triple agonist of SEQ ID NO: 14] and [Acetyl(2-(4-imidazolyl))]GQGTFTSDLSKQMDSEAQQLFIEWLKNGGPSSGAPPPSHG [triple agonist of SEQ ID NO: 16] cannot be ordered by “In vitro activity (%) vs. GIP, cAMP EC50” value: < 0.1% for the first, < 0.1% for the second.

[Acetyl(2-(4-imidazolyl))]GQGTFTSDLSKQMDEERAREFIEWLLAQKPSSGAPPPSHG [triple agonist of SEQ ID NO: 17] and [Acetyl(2-(4-imidazolyl))]GQGTFTSDLSKQMDSERAREFIEWLKNTGPSSGAPPPSHG [triple agonist of SEQ ID NO: 18] cannot be ordered by “In vitro activity (%) vs. GIP, cAMP EC50” value: < 0.1% for the first, < 0.1% for the second.

[Acetyl(2-(4-imidazolyl))]GQGTFTSDLSIQYDSEHQRDFIEWLKDTGPSSGAPPPSHG [triple agonist of SEQ ID NO: 19] and [Acetyl(2-(4-imidazolyl))]GQGTFTSDLSIQYEEEAQQDFVEWLKDTGPSSGAPPPSHG [triple agonist of SEQ ID NO: 20] cannot be ordered by “In vitro activity (%) vs. GIP, cAMP EC50” value: < 0.1% for the first, < 0.1% for the second.

Going from Y[Aib]QGTFTSDYSKYLDECRAKEFVQWLLDHHPSSGQPPPS (bridge 16-20) [triple agonist of SEQ ID NO: 21] to Y[Aib]QGTFTSDYSKCLDEKRAKEFVQWLLDHHPSSGQPPPS (bridge 16-20) [triple agonist of SEQ ID NO: 22], the “In vitro activity (%) vs. GIP, cAMP EC50” value rises from 22.7% to 59.7%.
